Laboratory results as given in PMC8166883.

Experiments:
[1] = molecular target: FLAG-tagged human vascular endothelial growth factor-A (FLAG-hVEGF-A) (human) (UniProt P15692); assay: SPR
[2] = molecular target: FLAG-tagged human tumor necrosis factor α (FLAG-hTNFα) (human) (UniProt P01375); assay: SPR
Chain of FLAG-tagged human tumor necrosis factor α (FLAG-hTNFα) (human) (P01375 whole entry): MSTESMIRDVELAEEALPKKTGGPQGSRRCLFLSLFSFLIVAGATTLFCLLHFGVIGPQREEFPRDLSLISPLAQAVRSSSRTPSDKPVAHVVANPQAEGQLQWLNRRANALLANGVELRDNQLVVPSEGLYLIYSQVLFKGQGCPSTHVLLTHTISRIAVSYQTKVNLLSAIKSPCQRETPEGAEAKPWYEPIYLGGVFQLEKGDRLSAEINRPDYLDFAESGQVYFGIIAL

Chain of FLAG-tagged human vascular endothelial growth factor-A (FLAG-hVEGF-A) (human) (P15692 other isoform, or with tags, fused parts or gaps): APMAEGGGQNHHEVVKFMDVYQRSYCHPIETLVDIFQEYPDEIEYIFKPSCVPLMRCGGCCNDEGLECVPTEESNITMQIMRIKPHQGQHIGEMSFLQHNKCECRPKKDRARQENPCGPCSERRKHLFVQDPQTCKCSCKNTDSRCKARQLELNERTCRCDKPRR

Row | Kd [1] [nM] | koff [1] [s⁻¹] | Substance | Kd [2] [nM] | koff [2] [s⁻¹]
1 | 0.341 | 0.000105 | bevacizumab |  | 
2 |  |  | adalimumab | 0.41 | 0.00036
